System: MS2 coat protein
Assay: apparent KD of MS2 coat protein; higher = weaker reporter binding
Settings: Eterna round: R107
How it was run: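 For every design, apparent KD is the median of normalised binding-curve fits from its clusters. The RNA switches were transcribed on-chip from Illumina sequencing clusters and titrated with SNAP-549-labelled MS2 coat protein (twofold steps, 0.7 or 1.5 nM to 3 µM; 0.8–1.5 h to 10–20 min per step). Titrations used 100 mM Tris-HCl pH 7.5, 80 mM KCl, 4 mM MgCl2, without or with constant ligand.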

[1] = input ligand: theophylline 20 uM
[2] = input ligand: tryptophan 2.4 mM
[3] = input ligand: theophylline 2 mM

GAACAUGAGGAUCACCCAUGUGAGAAUGAUACCAGUAGAAGAAGAUGCCCUUGGCAGCGUGCGUGAGGAUCACCCAUGUAGGAGG [e-theoA-0]
apparent KD of MS2 coat protein (input ligand: arginine 13.2 mM): 30 nM | apparent KD of MS2 coat protein [1]: 34.1 nM | apparent KD of MS2 coat protein [2]: 25.9 nM

UGUAUGUGAUGUGAUACCAGUCCAAUACUGGUAACAUGAGGAUCACCCAUGUAAUGAUGGGACCCUUGGCAGCACAUCGCAUACU [ThBS]
apparent KD of MS2 coat protein (input ligand: arginine 13.2 mM): 175 nM | apparent KD of MS2 coat protein [1]: 347 nM | apparent KD of MS2 coat protein [2]: 242 nM

UUACCGUAAGGUAUACCGGUCCACAAUAAUCGAGGACCGGUACGGCCGCCACUCGAUGUGUGAUCACAUGAGGAUCACCCAUGUA [Tryptophan A 20]
apparent KD of MS2 coat protein (input ligand: arginine 13.2 mM): 99.4 nM | apparent KD of MS2 coat protein [1]: 460 nM | apparent KD of MS2 coat protein [3]: 562 nM

ACAUGAGGAUCACCCAUGUGAUGGCACGAUACCAGCUGAUCCCGUGGCCCUUGGCAGCGUCCGGUGUGGUCCGGCGGGUGGGACG [qqwmullin]
apparent KD of MS2 coat protein (input ligand: arginine 13.2 mM): 30.1 nM | apparent KD of MS2 coat protein (input ligand: none): 21.5 nM | apparent KD of MS2 coat protein [1]: 97.8 nM | apparent KD of MS2 coat protein [3]: 25.9 nM | apparent KD of MS2 coat protein [2]: 21.2 nM

CCGCACAUGAGGAUCACCCAUGUCAGGGAUACCAGCCCAGACAUGGGCCCUUGGCAGCUUUGUAGCUGACGAAAGUCAGCAGCGG [Omei Theo A SS A v2]
apparent KD of MS2 coat protein (input ligand: arginine 13.2 mM): 17.6 nM | apparent KD of MS2 coat protein (input ligand: none): 33.6 nM | apparent KD of MS2 coat protein [1]: 62.3 nM | apparent KD of MS2 coat protein [3]: 101 nM | apparent KD of MS2 coat protein [2]: 59.2 nM

CACAUGAGGAUCACCCAUGUCUGAACUGAAGGAGCGCUAAACAAGGCAGGUAGGUCGCGGAAUUUUGUGUGCAUAUGCAUAUGGG [9.N]
apparent KD of MS2 coat protein (input ligand: arginine 13.2 mM): 21.6 nM | apparent KD of MS2 coat protein (input ligand: none): 24.5 nM | apparent KD of MS2 coat protein [1]: 36.3 nM | apparent KD of MS2 coat protein [3]: 26.9 nM | apparent KD of MS2 coat protein [2]: 24.8 nM

AAAUGUGUAAAAGCUUUAACACCCUGAGAAGGAGCGCAAUAAAUUGCAGGUAGGUCGCUCAGACAUGAGGAUCACCCAUGUAACC [Atrabeor]
apparent KD of MS2 coat protein (input ligand: arginine 13.2 mM): 45.7 nM | apparent KD of MS2 coat protein (input ligand: none): 39.6 nM | apparent KD of MS2 coat protein [1]: 56.9 nM | apparent KD of MS2 coat protein [3]: 59.7 nM | apparent KD of MS2 coat protein [2]: 40 nM

AAAAGAGGUGGAAGGAGCGGGAGACAUGAGGAUCACCCAUGUGAUGUGACGAAAGGGUCAGCCCAGGUAGGUCGCCAUGUCGAAA [yuyymullin]
apparent KD of MS2 coat protein (input ligand: arginine 13.2 mM): 54.6 nM | apparent KD of MS2 coat protein (input ligand: none): 62.9 nM | apparent KD of MS2 coat protein [1]: 76.2 nM | apparent KD of MS2 coat protein [3]: 134 nM | apparent KD of MS2 coat protein [2]: 27.3 nM

AUCGUACCUGAGGAUACCAGCAUGUGAUCAUAACAUGAGGAUCACCCAUGUAAUCAGUGAUGCCCUUGGCAGCUUGAUCGGUACA [Same State - Theophylline B (Freestyle 11)]
apparent KD of MS2 coat protein (input ligand: arginine 13.2 mM): 53.4 nM | apparent KD of MS2 coat protein [1]: 83.6 nM | apparent KD of MS2 coat protein [2]: 63.8 nM

AUUAAUUGUCGUGAUACCAGACUUACAUGAGGAUCACCCAUGUUACUUAAGAUUUUUGUUGUCCCUUGGCAGCACUUUUUAAUUA [JR_Nu_ExcTheophyB_Sub024]
apparent KD of MS2 coat protein (input ligand: arginine 13.2 mM): 24.5 nM | apparent KD of MS2 coat protein [1]: 33 nM | apparent KD of MS2 coat protein [2]: 23.3 nM

GGGCCUAUCUGAAGGAGCGACAUGAGGAUCACCCAUGUCUCCCGUUAUGGGAGUUCUUUAGGUCAGGUAGGUCGCAGGUAGGGCC [#1 Exclusion - Arginine B Attempt #5 (Inspired by Omei)]
apparent KD of MS2 coat protein (input ligand: arginine 13.2 mM): 12.2 nM | apparent KD of MS2 coat protein (input ligand: none): 14.7 nM | apparent KD of MS2 coat protein [1]: 19 nM | apparent KD of MS2 coat protein [3]: 15.2 nM | apparent KD of MS2 coat protein [2]: 15 nM

CAAAUAGACCACGAUACCAGAACACAAGGAGUAAUAUCAAACAUGAGGAUCACCCAUGUCUUCCCUUGGCAGCGUAGCACGGAGU [theeternabot_exclusion_MS2_Theo_B_23]
apparent KD of MS2 coat protein (input ligand: arginine 13.2 mM): 13.5 nM | apparent KD of MS2 coat protein [1]: 15.2 nM | apparent KD of MS2 coat protein [2]: 11 nM

UUUGACGGCGAUCUGGGUUUACCAGAUCGGCGAGGACCGGUACGGCCGCCACUCGUGUUUCUUUGACAUGAGGAUCACCCAUGUA [whbob_SS_trypto A_f2]
apparent KD of MS2 coat protein (input ligand: arginine 13.2 mM): 38.4 nM | apparent KD of MS2 coat protein [1]: 57.3 nM | apparent KD of MS2 coat protein [3]: 60.5 nM

GGGUGGUAGGCGGCCGCCACUGAUUUUCAUUCCUAGAUGACAUGAGGAUCACCCAUGUUUAUGGGCAGGACCGGGCCUGCUGUGG [aaaV]
apparent KD of MS2 coat protein (input ligand: arginine 13.2 mM): 38.4 nM | apparent KD of MS2 coat protein [1]: 64.1 nM | apparent KD of MS2 coat protein [3]: 79.9 nM

CCCUGGGUGGGAAGGAGCGCAUAUUCAACAUGAGGAUCACCCAUGUACAGACGUGAGUCAUUGCAGGUAGGUCGCCCACCCAGGG [SS-ArgB21]
apparent KD of MS2 coat protein (input ligand: arginine 13.2 mM): 12.9 nM | apparent KD of MS2 coat protein (input ligand: none): 15.7 nM | apparent KD of MS2 coat protein [1]: 20.4 nM | apparent KD of MS2 coat protein [3]: 14.8 nM | apparent KD of MS2 coat protein [2]: 15.5 nM

AACCGAGGCUAUCCACAAAGAAAAUGUGAUACCAGAAUAAUUUUAUUCCCUUGGCAGCAUGACAUGAGGAUCACCCAUGUGUCUU [SSTheo A #5]
apparent KD of MS2 coat protein (input ligand: arginine 13.2 mM): 29.7 nM | apparent KD of MS2 coat protein [1]: 39.8 nM | apparent KD of MS2 coat protein [2]: 32.8 nM

CGAGUAGGUUCAAUCGAAUAACGGUUUUCGCGAGGACCGGUACGGCCGCCACUCGUGUGAUAUCACACAUGAGGAUCACCCAUGU [3'end-1]
apparent KD of MS2 coat protein (input ligand: arginine 13.2 mM): 33.5 nM | apparent KD of MS2 coat protein [1]: 49.2 nM | apparent KD of MS2 coat protein [3]: 68 nM

ACAUGAGGAUCACCCAUGUACAUGAGGGAAGGAGCGGUACAUGAGCCAGGUAGGUCGCCCAACAGCAAAUGGCAUGUACAACGGA [hhnmullin]
apparent KD of MS2 coat protein (input ligand: arginine 13.2 mM): 33.8 nM | apparent KD of MS2 coat protein (input ligand: none): 78.4 nM | apparent KD of MS2 coat protein [1]: 74.3 nM | apparent KD of MS2 coat protein [3]: 60.5 nM | apparent KD of MS2 coat protein [2]: 63.5 nM

ACAUGAGGAUCACCCAUGUGCCGUCUUGAUACCAGACCCGAAGUAGUCCCUUGGCAGCAACUACGUGACGGUCGCCCAUGUGUAG [rremullin]
apparent KD of MS2 coat protein (input ligand: arginine 13.2 mM): 14 nM | apparent KD of MS2 coat protein [1]: 20.4 nM | apparent KD of MS2 coat protein [2]: 14.7 nM

GUUAUAACAAAAGUUGUAACAGUGGGUGAACGAGGACCGGUACGGCCGCCACUCGGACAUGAGGAUCACCCAUGUCCAUGUGAAA [AstrosExyTryA#15]
apparent KD of MS2 coat protein (input ligand: arginine 13.2 mM): 14.1 nM | apparent KD of MS2 coat protein [1]: 18.2 nM | apparent KD of MS2 coat protein [3]: 21.6 nM
